Measured values published in PMC12746484, “Growth-coupled selection of 5-aminolevulinic acid synthetase mutants for 5-aminolevulinic acid biosynthesis in Corynebacterium glutamicum” (Frontiers in Microbiology, 2025).

Columns and labels:
NCC(=O)O = system: T1, NCC(=O)O; test: steady-state kinetics, 5-ALA formation, nonlinear Michaelis-Menten fit; format: biochemical, Rhodobacter capsulatus; details: 37 °C, Tris pH 7.5, pyridoxal phosphate, co-substrate succinyl-CoA, glycine 1-40 mM
T1 construct: codon-optimized hemA cloned in pET28a, expressed in E. coli BL21(DE3), Ni-NTA purified
Source text: (§1) steady-state kinetics, 5-ALA formation, nonlinear Michaelis-Menten fit on ALAS from Rhodobacter capsulatus SB1003 (hemA^Rc; pET28a-SB)

[1] = system: T2, CC(C)(COP(=O)(O)OP(=O)(O)OC[C@H]1O[C@@H](n2cnc3c(N)ncnc32)[C@H](O)[C@@H]1OP(=O)(O)O)[C@@H](O)C(=O)NCCC(=O)NCCSC(=O)CCC(=O)O; test: as above; format: biochemical, Rhodobacter capsulatus; details: 37 °C, Tris pH 7.5, pyridoxal phosphate, co-substrate glycine, succinyl-CoA 5-150 μM
T2 construct: codon-optimized hemA cloned in pET28a, expressed in E. coli BL21(DE3), Ni-NTA purified
Source text: as §1

Chain of ALAS from Rhodobacter capsulatus SB1003 (hemA^Rc; pET28a-SB) (Rhodobacter capsulatus SB 1003; E27V/F363Y/G105C) (chain, as listed by the source E27V F363Y G105C): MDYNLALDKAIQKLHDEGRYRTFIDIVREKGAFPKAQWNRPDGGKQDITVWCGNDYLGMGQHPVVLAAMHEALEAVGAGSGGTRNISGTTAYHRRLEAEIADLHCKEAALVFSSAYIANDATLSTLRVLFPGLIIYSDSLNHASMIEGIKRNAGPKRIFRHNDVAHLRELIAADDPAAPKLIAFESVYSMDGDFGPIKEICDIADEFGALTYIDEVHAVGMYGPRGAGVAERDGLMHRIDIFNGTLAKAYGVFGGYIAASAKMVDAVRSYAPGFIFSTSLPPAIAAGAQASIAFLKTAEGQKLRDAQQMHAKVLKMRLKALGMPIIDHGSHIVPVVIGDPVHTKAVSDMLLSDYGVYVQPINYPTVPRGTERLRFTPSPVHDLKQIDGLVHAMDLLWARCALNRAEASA
Chain of ALAS from Rhodobacter capsulatus SB1003 (hemA^Rc; pET28a-SB) (Rhodobacter capsulatus SB 1003) (chain, as listed by the source): as the sequence (chain, as listed by the source E27V F363Y G105C) above, with V27E, C105G, Y363F counted along it

Substance | Km (NCC(=O)O) [µM] | kcat (NCC(=O)O) [s⁻¹] | kcat/Km (NCC(=O)O) [M⁻¹ s⁻¹] | Km [1] [µM] | kcat [1] [s⁻¹] | kcat/Km [1] [M⁻¹ s⁻¹]
ALAS from Rhodobacter capsulatus SB1003 (hemA^Rc; pET28a-SB) (Rhodobacter capsulatus SB 1003) | 2660 ± 260 | 2.52 ± 0.22 | 950 ± 230 | 17.5 ± 2.65 | 2.52 ± 0.22 | 140000 ± 30000
ALAS from Rhodobacter capsulatus SB1003 (hemA^Rc; pET28a-SB) (Rhodobacter capsulatus SB 1003; E27V/F363Y/G105C) | 2130 ± 220 | 2.94 ± 0.15 | 1270 ± 180 | 16.88 ± 2.21 | 2.94 ± 0.15 | 170000 ± 20000
